Reference: patent publication US20210395344A1

Legend:
[1] = biological target: SARS-CoV-2 S protein trimer (SARS-CoV-2), P0DTC2; experiment: column DB/S-T (format not explained); details: remark: other sources report otherwise
[2] = biological target: COVID S1 RBD Fc fusion (Antigen 1) (SARS-CoV-2), P0DTC2; experiment: phage ELISA; details: remark: other sources report otherwise

B1: 1-5 (antibody, V domains shown)
VH: EVQLLESGGGLVQPGGSLRLSCAASGFTFSSQAMSWVRQAPGKGLEWVSAISGSGGGTYYADSVKGRFTISRDNSKNTLYLQMNSLRAEDTAVYYCAKDRRFGEFDPWGQGTLVTVSS
VL: QSALTQPASVSGSPGQSITISCTGTSSGVGSYNLVSWYQQHPGKAPKLMIYEASKRPSGVSNRFSGSKSGNTASLTISGLQAEDEADYYCCSYAGSYTFAVFGGGTKLTVL
- Kd [1]: 1160 nM
- ELISA fold over background (fold over background) [2]: 1.6
